T1: DLG3_2, Q92796
T1 sequence (Q92796 221-321, limits assumed, looked up): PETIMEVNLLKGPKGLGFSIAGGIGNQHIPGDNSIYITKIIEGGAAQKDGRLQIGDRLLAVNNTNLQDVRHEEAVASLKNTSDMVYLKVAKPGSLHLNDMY

T2: MPP6, Q9NZW5
T2 sequence (Q9NZW5 125-219, limits assumed, looked up): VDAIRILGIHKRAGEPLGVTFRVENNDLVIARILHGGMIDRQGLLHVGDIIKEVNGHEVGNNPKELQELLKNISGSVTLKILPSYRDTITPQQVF

T3: GRIP1_5, Q9Y3R0
T3 sequence (Q9Y3R0 568-668, limits assumed, looked up): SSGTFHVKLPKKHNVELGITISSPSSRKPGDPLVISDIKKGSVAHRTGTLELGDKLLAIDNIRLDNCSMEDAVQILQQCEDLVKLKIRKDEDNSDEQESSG

T4: RADIL, Q96JH8
T4 sequence (Q96JH8 971-1071, limits assumed, looked up): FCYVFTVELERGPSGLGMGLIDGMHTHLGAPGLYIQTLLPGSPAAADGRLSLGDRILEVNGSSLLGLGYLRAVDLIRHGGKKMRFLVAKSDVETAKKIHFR

T5: LIN7A, O14910
T5 sequence (O14910 103-200, limits assumed, looked up): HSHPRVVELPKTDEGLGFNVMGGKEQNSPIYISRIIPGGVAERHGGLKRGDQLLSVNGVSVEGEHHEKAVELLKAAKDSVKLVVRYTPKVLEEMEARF

T6: SIPA1L2, Q9P2F8
T6 sequence (Q9P2F8 945-1036, limits assumed, looked up): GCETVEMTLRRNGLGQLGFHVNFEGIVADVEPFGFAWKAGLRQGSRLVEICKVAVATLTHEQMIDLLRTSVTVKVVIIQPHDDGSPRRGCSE

T7: ARHGEF11, O15085
T7 sequence (O15085 42-136, limits assumed, looked up): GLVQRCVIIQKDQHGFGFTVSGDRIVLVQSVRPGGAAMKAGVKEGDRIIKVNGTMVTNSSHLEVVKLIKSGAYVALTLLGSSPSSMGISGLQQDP

T8: SHANK1, Q9Y566
T8 sequence (Q9Y566 658-767, limits assumed, looked up): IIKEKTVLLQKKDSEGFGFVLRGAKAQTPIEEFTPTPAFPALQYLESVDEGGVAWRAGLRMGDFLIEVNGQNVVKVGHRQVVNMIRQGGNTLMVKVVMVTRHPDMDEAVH

T9: DLG3_1, Q92796
T9 sequence (Q92796 125-227, limits assumed, looked up): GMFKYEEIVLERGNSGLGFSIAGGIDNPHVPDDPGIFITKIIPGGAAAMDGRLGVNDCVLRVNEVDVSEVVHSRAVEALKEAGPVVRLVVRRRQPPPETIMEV

B1: RAB9A, P51151 (peptide)
chain: RKPKPSSSCC
B2: ABCC6, O95255 (peptide)
chain: YRLAQESGLV

target: T1, DLG3_2, Q92796; assay: holdup assay; set-up: key: below the threshold = too weak to quantify, mostly under pKd 3.1 to 4; details: plain residues with an end cap or a label only (N-terminal biotin on a linker: ado-ado)

| Binder | pKd |
| --- | --- |
| B1 | 4.1 |
| B2 | below the threshold |

target: GRASP, Q7Z6J2; assay: holdup assay; set-up: key: below the threshold = too weak to quantify, mostly under pKd 3.1 to 4; details: plain residues with an end cap or a label only (N-terminal biotin on a linker: ado-ado)
Sequence (Q7Z6J2 96-193): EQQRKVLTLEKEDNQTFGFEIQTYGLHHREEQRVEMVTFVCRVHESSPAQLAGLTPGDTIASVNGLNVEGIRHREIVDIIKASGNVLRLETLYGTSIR

| Binder | pKd |
| --- | --- |
| B1 | below the threshold |
| B2 | below the threshold |

target: MAGI1_2, Q96QZ7; assay: holdup assay; set-up: key: below the threshold = too weak to quantify, mostly under pKd 3.1 to 4; details: plain residues with an end cap or a label only (N-terminal biotin on a linker: ado-ado)
Sequence (Q96QZ7 456-580): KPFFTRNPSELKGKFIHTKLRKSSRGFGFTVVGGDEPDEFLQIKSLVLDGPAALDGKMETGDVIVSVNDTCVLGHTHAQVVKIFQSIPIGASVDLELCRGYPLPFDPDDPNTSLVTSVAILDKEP

| Binder | pKd |
| --- | --- |
| B1 | 3.64 |
| B2 | below the threshold |

target: MAGI2_2, Q86UL8; assay: holdup assay; set-up: key: below the threshold = too weak to quantify, mostly under pKd 3.1 to 4; details: plain residues with an end cap or a label only (N-terminal biotin on a linker: ado-ado)
Sequence (Q86UL8 410-522): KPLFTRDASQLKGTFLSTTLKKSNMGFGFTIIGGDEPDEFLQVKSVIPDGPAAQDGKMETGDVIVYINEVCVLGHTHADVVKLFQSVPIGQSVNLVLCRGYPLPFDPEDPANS

| Binder | pKd |
| --- | --- |
| B1 | below the threshold |
| B2 | below the threshold |

target: T2, MPP6, Q9NZW5; assay: holdup assay; set-up: key: below the threshold = too weak to quantify, mostly under pKd 3.1 to 4; details: plain residues with an end cap or a label only (N-terminal biotin on a linker: ado-ado)

| Binder | pKd |
| --- | --- |
| B1 | 3.51 |
| B2 | 3.74 |

target: T3, GRIP1_5, Q9Y3R0; assay: holdup assay; set-up: key: below the threshold = too weak to quantify, mostly under pKd 3.1 to 4; details: plain residues with an end cap or a label only (N-terminal biotin on a linker: ado-ado)

| Binder | pKd |
| --- | --- |
| B1 | below the threshold |
| B2 | below the threshold |

target: T4, RADIL, Q96JH8; assay: holdup assay; set-up: key: below the threshold = too weak to quantify, mostly under pKd 3.1 to 4; details: plain residues with an end cap or a label only (N-terminal biotin on a linker: ado-ado)

| Binder | pKd |
| --- | --- |
| B1 | below the threshold |
| B2 | 4.22 |

target: GORASP2, Q9H8Y8; assay: holdup assay; set-up: key: below the threshold = too weak to quantify, mostly under pKd 3.1 to 4; details: plain residues with an end cap or a label only (N-terminal biotin on a linker: ado-ado)

| Binder | pKd |
| --- | --- |
| B1 | below the threshold |
| B2 | below the threshold |

target: DLG4_3, P78352; assay: holdup assay; set-up: key: below the threshold = too weak to quantify, mostly under pKd 3.1 to 4; details: plain residues with an end cap or a label only (N-terminal biotin on a linker: ado-ado)
Sequence (P78352 306-403): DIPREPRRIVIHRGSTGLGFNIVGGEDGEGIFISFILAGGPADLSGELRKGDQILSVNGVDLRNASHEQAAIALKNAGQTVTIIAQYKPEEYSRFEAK

| Binder | pKd |
| --- | --- |
| B1 | below the threshold |
| B2 | below the threshold |

target: SCRIB_2, Q14160; assay: holdup assay; set-up: key: below the threshold = too weak to quantify, mostly under pKd 3.1 to 4; details: plain residues with an end cap or a label only (N-terminal biotin on a linker: ado-ado)
Sequence (Q14160 857-960): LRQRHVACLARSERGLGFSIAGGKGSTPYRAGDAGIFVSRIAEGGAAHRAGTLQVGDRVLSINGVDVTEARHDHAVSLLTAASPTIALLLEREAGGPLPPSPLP

| Binder | pKd |
| --- | --- |
| B1 | below the threshold |
| B2 | below the threshold |

target: T5, LIN7A, O14910; assay: holdup assay; set-up: key: below the threshold = too weak to quantify, mostly under pKd 3.1 to 4; details: plain residues with an end cap or a label only (N-terminal biotin on a linker: ado-ado)

| Binder | pKd |
| --- | --- |
| B1 | below the threshold |
| B2 | below the threshold |

target: T6, SIPA1L2, Q9P2F8; assay: holdup assay; set-up: key: below the threshold = too weak to quantify, mostly under pKd 3.1 to 4; details: plain residues with an end cap or a label only (N-terminal biotin on a linker: ado-ado)

| Binder | pKd |
| --- | --- |
| B1 | below the threshold |
| B2 | below the threshold |

target: GOPC, Q9HD26; assay: holdup assay; set-up: key: below the threshold = too weak to quantify, mostly under pKd 3.1 to 4; details: plain residues with an end cap or a label only (N-terminal biotin on a linker: ado-ado)

| Binder | pKd |
| --- | --- |
| B1 | below the threshold |
| B2 | below the threshold |

target: TJP2_1, Q9UDY2; assay: holdup assay; set-up: key: below the threshold = too weak to quantify, mostly under pKd 3.1 to 4; details: plain residues with an end cap or a label only (N-terminal biotin on a linker: ado-ado)
Sequence (Q9UDY2 24-128): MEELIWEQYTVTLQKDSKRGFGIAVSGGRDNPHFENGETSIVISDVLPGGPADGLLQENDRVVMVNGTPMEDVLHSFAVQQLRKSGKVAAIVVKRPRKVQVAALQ

| Binder | pKd |
| --- | --- |
| B1 | below the threshold |
| B2 | below the threshold |

target: LDB3, O75112; assay: holdup assay; set-up: key: below the threshold = too weak to quantify, mostly under pKd 3.1 to 4; details: plain residues with an end cap or a label only (N-terminal biotin on a linker: ado-ado)
Sequence (O75112 1-94): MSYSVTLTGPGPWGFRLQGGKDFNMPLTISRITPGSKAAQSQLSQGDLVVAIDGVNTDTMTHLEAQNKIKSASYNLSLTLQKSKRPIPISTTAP

| Binder | pKd |
| --- | --- |
| B1 | 3.51 |
| B2 | below the threshold |

target: T7, ARHGEF11, O15085; assay: holdup assay; set-up: key: below the threshold = too weak to quantify, mostly under pKd 3.1 to 4; details: plain residues with an end cap or a label only (N-terminal biotin on a linker: ado-ado)

| Binder | pKd |
| --- | --- |
| B1 | below the threshold |
| B2 | below the threshold |

target: T8, SHANK1, Q9Y566; assay: holdup assay; set-up: key: below the threshold = too weak to quantify, mostly under pKd 3.1 to 4; details: plain residues with an end cap or a label only (N-terminal biotin on a linker: ado-ado)

| Binder | pKd |
| --- | --- |
| B1 | below the threshold |
| B2 | below the threshold |

target: SCRIB_3, Q14160; assay: holdup assay; set-up: key: below the threshold = too weak to quantify, mostly under pKd 3.1 to 4; details: plain residues with an end cap or a label only (N-terminal biotin on a linker: ado-ado)
Sequence (Q14160 999-1103): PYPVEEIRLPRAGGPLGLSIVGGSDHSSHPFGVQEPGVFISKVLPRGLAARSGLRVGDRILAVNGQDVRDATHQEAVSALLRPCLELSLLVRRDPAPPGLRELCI

| Binder | pKd |
| --- | --- |
| B1 | below the threshold |
| B2 | below the threshold |

target: MAGI3_2, Q5TCQ9; assay: holdup assay; set-up: key: below the threshold = too weak to quantify, mostly under pKd 3.1 to 4; details: plain residues with an end cap or a label only (N-terminal biotin on a linker: ado-ado)
Sequence (Q5TCQ9 398-503): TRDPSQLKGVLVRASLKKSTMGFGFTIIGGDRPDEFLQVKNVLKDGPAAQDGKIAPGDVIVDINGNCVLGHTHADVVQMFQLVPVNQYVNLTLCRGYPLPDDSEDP

| Binder | pKd |
| --- | --- |
| B1 | below the threshold |
| B2 | below the threshold |

target: DLG1_3, Q12959; assay: holdup assay; set-up: key: below the threshold = too weak to quantify, mostly under pKd 3.1 to 4; details: plain residues with an end cap or a label only (N-terminal biotin on a linker: ado-ado)

| Binder | pKd |
| --- | --- |
| B1 | below the threshold |
| B2 | below the threshold |

target: TJP1_2, Q07157; assay: holdup assay; set-up: key: below the threshold = too weak to quantify, mostly under pKd 3.1 to 4; details: plain residues with an end cap or a label only (N-terminal biotin on a linker: ado-ado)
Sequence (Q07157 181-274): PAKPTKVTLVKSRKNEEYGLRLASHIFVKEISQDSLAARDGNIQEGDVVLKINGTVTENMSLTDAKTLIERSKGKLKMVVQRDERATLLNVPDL

| Binder | pKd |
| --- | --- |
| B1 | below the threshold |
| B2 | below the threshold |

target: DLG1_1, Q12959; assay: holdup assay; set-up: key: below the threshold = too weak to quantify, mostly under pKd 3.1 to 4; details: plain residues with an end cap or a label only (N-terminal biotin on a linker: ado-ado)

| Binder | pKd |
| --- | --- |
| B1 | below the threshold |
| B2 | below the threshold |

target: FRMPD3, Q5JV73; assay: holdup assay; set-up: key: below the threshold = too weak to quantify, mostly under pKd 3.1 to 4; details: plain residues with an end cap or a label only (N-terminal biotin on a linker: ado-ado)
Sequence (Q5JV73 12-100): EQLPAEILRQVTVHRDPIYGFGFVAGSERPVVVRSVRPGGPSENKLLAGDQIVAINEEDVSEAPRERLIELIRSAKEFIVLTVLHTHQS

| Binder | pKd |
| --- | --- |
| B1 | below the threshold |
| B2 | below the threshold |

target: T9, DLG3_1, Q92796; assay: holdup assay; set-up: key: below the threshold = too weak to quantify, mostly under pKd 3.1 to 4; details: plain residues with an end cap or a label only (N-terminal biotin on a linker: ado-ado)

| Binder | pKd |
| --- | --- |
| B1 | below the threshold |
| B2 | below the threshold |

target: AHNAK1, Q09666; assay: holdup assay; set-up: key: below the threshold = too weak to quantify, mostly under pKd 3.1 to 4; details: plain residues with an end cap or a label only (N-terminal biotin on a linker: ado-ado)
Sequence (Q09666 4-100): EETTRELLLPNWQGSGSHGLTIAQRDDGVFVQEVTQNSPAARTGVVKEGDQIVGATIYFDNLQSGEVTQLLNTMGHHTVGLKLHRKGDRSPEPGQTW

| Binder | pKd |
| --- | --- |
| B1 | below the threshold |
| B2 | below the threshold |

target: PDLIM1, O00151; assay: holdup assay; set-up: key: below the threshold = too weak to quantify, mostly under pKd 3.1 to 4; details: plain residues with an end cap or a label only (N-terminal biotin on a linker: ado-ado)
Sequence (O00151 1-87): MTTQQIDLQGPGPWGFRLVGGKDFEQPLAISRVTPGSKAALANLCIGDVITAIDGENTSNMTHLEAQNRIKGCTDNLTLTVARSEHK

| Binder | pKd |
| --- | --- |
| B1 | below the threshold |
| B2 | below the threshold |

target: IL16_1, Q14005; assay: holdup assay; set-up: key: below the threshold = too weak to quantify, mostly under pKd 3.1 to 4; details: plain residues with an end cap or a label only (N-terminal biotin on a linker: ado-ado)
Sequence (Q14005 210-306): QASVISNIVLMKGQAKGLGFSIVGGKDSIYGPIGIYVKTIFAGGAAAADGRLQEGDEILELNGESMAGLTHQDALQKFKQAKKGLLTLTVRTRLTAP

| Binder | pKd |
| --- | --- |
| B1 | below the threshold |
| B2 | below the threshold |

target: DLG4_2, P78352; assay: holdup assay; set-up: key: below the threshold = too weak to quantify, mostly under pKd 3.1 to 4; details: plain residues with an end cap or a label only (N-terminal biotin on a linker: ado-ado)
Sequence (P78352 155-259): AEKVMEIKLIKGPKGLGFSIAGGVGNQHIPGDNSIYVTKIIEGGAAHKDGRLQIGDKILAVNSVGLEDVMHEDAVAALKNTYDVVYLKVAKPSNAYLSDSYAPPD

| Binder | pKd |
| --- | --- |
| B1 | below the threshold |
| B2 | 3.55 |

Source: article PMC9482650, “Quantitative fragmentomics allow affinity mapping of interactomes” (Nature Communications, 2022)
